Reference: patent publication US20210122822A1 (FORTY SEVEN, published 2021)

Columns and labels:
[1] = target: T1, human c-Kit-Fc fusion protein (human, UniProt P10721 26-520, limits assumed); assay: ELISA, coated human c-Kit-Fc, against AMG191
T1 construct: not shown: Fc part of the fusion protein
Experimental: (§1) Antigen binding activity measurement by ELISA. 96-well plates (Nunc, Roskilde, Denmark) were coated with 1 ug/ml human c-Kit-Fc fusion protein in phosphate-buffered saline (PBS) for 16 hr at 4° C. After blocking for 1 hr with 0.4% BSA in PBS at room temperature, anti-c-Kit antibodies were added in 1/3 sequential dilutions, and incubated for 1 hr at room temperature. Plates were subsequently washed three times and incubated with HRP-conjugated goat anti-human kappa-specific antibody for 1 hr at room temperature. After washing, plates were developed with TMB. The reaction was stopped with 2M […], and OD was measured at 450 nm.

[2] = target: T1, human c-Kit-Fc fusion protein; assay: ELISA, coated human c-Kit-Fc
Experimental: as §1

[3] = target: T1, human c-Kit-Fc fusion protein; assay: ELISA, coated human c-Kit-Fc, FIG. 2D (members named at paragraph 117)
Experimental: as §1

[4] = target: T1, human c-Kit-Fc fusion protein; assay: ELISA, coated human c-Kit-Fc; AMG191 is the reference
Experimental: as §1

[5] = target: T1, human c-Kit-Fc fusion protein; assay: ELISA, coated human c-Kit-Fc, FIG. 2C (members named at paragraph 117)
Experimental: as §1

[6] = target: T1, human c-Kit-Fc fusion protein; assay: ELISA, coated human c-Kit-Fc, FIG. 3D, against AMG191 (members named at paragraph 118)
Experimental: as §1

[7] = target: T1, human c-Kit-Fc fusion protein; assay: ELISA, coated human c-Kit-Fc, FIG. 3C, against AMG191
Experimental: as §1

T1 sequence (P10721 26-520 limits assumed): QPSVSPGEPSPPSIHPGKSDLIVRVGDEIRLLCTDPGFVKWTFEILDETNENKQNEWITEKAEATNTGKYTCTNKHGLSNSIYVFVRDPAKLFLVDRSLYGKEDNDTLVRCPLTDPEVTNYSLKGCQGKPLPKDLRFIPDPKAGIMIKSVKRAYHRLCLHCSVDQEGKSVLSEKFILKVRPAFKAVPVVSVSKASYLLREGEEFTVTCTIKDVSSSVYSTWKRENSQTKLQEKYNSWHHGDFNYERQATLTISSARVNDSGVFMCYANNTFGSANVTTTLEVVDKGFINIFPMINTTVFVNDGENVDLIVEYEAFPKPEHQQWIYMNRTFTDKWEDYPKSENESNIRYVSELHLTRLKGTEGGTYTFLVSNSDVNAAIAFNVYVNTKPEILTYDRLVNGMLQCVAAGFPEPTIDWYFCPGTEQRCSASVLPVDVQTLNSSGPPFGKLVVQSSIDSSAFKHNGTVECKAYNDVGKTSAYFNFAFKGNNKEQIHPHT

B1: AF11 (antibody, V domains shown)
VH: QVQLVQSGAEVKKPGASVKVSCKASGYTFTSYNMHWVRQAPGQGLEWMGVIYSGNGDTSYAQKFKGRVTITADKSTSTAYMELSSLRSEDTAVYYCARERDTRFGNWGQGTLVTVSS
VL: DIVMTQSPDSLAVSLGERATINCRASESVDIYGQSFMHWYQQKPGQPPKLLIYLASNLESGVPDRFSGSGSGTDFTLTISSLQAEDVAVYYCQQNNEDPYTFGGGTKVEIK
B1: binds [1].

B2: HF112 (antibody, human IgG1, V domains shown)
VH: QVQLVQSGAEVKKPGASVKVSCKASGYTFTSYNMHWVRQAPGQGLEWMGVIYSGNGDTSYAQKFQGRVTITADKSTSTAYMELSSLRSEDTAVYYCARERDTRFGNWGQGTLVTVSS
VL: DIVMTQSPLSLPVTPGEPASISCRASESVDIYGQSFMHWYLQKPGQSPQLLIYLASNLESGVPDRFSGSGSGTDFTLKISRVEAEDVGVYYCQQNNEDPYTFGGGTKVEIK
B2: binds [2].

B3: AF-2-1 (antibody, V domains shown)
VH: QVQLVQSGAEVKKPGASVKVSCKASGYTFTSYNMHWVRQAPGQGLEWMGVIYSGQGDTSYNQKFKGRVTITADKSTSTAYMELSSLRSEDTAVYYCARERDTRFGNWGQGTLVTVSS
VL: DIVMTQSPDSLAVSLGERATINCRASESVDIYGQSFMHWYQQKPGQPPKLLIYLASNLESGVPDRFSGSGSGTDFTLTISSLQAEDVAVYYCQQNNEDPYTFGGGTKVEIK
B3: binds [3].

B4: AF-3 (antibody, V domains shown)
VH: QVQLVQSGAEVKKPGASVKVSCKASGYTFTSYNMHWVRQAPGQGLEWMGVIYSGNGDTSYNQKFKGRVTITADKSTSTAYMELSSLRSEDTAVYYCARDRDTRFGNWGQGTLVTVSS
VL: DIVMTQSPDSLAVSLGERATINCRASESVDIYGQSFMHWYQQKPGQPPKLLIYLASNLESGVPDRFSGSGSGTDFTLTISSLQAEDVAVYYCQQNNEDPYTFGGGTKVEIK
B4: binds [3].

B5: AMG191 (antibody, V domains shown)
VH: QVQLVQSGAEVKKPGASVKVSCKASGYTFTSYNMHWVRQAPGQGLEWMGVIYSGNGDTSYNQKFKGRVTITADKSTSTAYMELSSLRSEDTAVYYCARERDTRFGNWGQGTLVTVSS
VL: DIVMTQSPDSLAVSLGERATINCRASESVDIYGNSFMHWYQQKPGQPPKLLIYLASNLESGVPDRFSGSGSGTDFTLTISSLQAEDVAVYYCQQNNEDPYTFGGGTKVEIK
notes: Humanized form of HB-10716; constant region has an N to E mutation of position 297 (unglycosylated, silenced Fc); kappa light chain implied by the anti-human kappa detection
B5: binds [4].

B6: AF112 (antibody, human IgG1, V domains shown)
VH: QVQLVQSGAEVKKPGASVKVSCKASGYTFTSYNMHWVRQAPGQGLEWMGVIYSGNGDTSYAQKFQGRVTITADKSTSTAYMELSSLRSEDTAVYYCARERDTRFGNWGQGTLVTVSS
VL: DIVMTQSPDSLAVSLGERATINCRASESVDIYGQSFMHWYQQKPGQPPKLLIYLASNLESGVPDRFSGSGSGTDFTLTISSLQAEDVAVYYCQQNNEDPYTFGGGTKVEIK
B6: binds [5].

B7: AF12 (antibody, human IgG1, V domains shown)
VH: QVQLVQSGAEVKKPGASVKVSCKASGYTFTSYNMHWVRQAPGQGLEWMGVIYSGNGDTSYNQKFQGRVTITADKSTSTAYMELSSLRSEDTAVYYCARERDTRFGNWGQGTLVTVSS
VL: DIVMTQSPDSLAVSLGERATINCRASESVDIYGQSFMHWYQQKPGQPPKLLIYLASNLESGVPDRFSGSGSGTDFTLTISSLQAEDVAVYYCQQNNEDPYTFGGGTKVEIK
B7: binds [5].

B8: NF11 (antibody, V domains shown)
VH: EVQLLESGGGLVQPGGSLRLSCAASGFTFTSYNMHWVRQAPGKGLEWVGVIYSGNGDTSYAQKFKGRFTISADKSKNTAYLQMNSLRAEDTAVYYCARERDTRFGNWGQGTLVTVSS
VL: DIVMTQSPLSLPVTPGEPASISCRASESVDIYGQSFMHWYLQKPGQSPQLLIYLASNLESGVPDRFSGSGSGTDFTLKISRVEAEDVGVYYCQQNNEDPYTFGGGTKVEIK
B8: binds [6].

B9: NF12 (antibody, V domains shown)
VH: EVQLLESGGGLVQPGGSLRLSCAASGFTFTSYNMHWVRQAPGKGLEWVGVIYSGNGDTSYNQKFQGRFTISADKSKNTAYLQMNSLRAEDTAVYYCARERDTRFGNWGQGTLVTVSS
VL: DIVMTQSPLSLPVTPGEPASISCRASESVDIYGQSFMHWYLQKPGQSPQLLIYLASNLESGVPDRFSGSGSGTDFTLKISRVEAEDVGVYYCQQNNEDPYTFGGGTKVEIK
B9: binds [2].

B10: NF (antibody, V domains shown)
VH: EVQLLESGGGLVQPGGSLRLSCAASGFTFTSYNMHWVRQAPGKGLEWVGVIYSGNGDTSYNQKFKGRFTISADKSKNTAYLQMNSLRAEDTAVYYCARERDTRFGNWGQGTLVTVSS
VL: DIVMTQSPLSLPVTPGEPASISCRASESVDIYGNSFMHWYLQKPGQSPQLLIYLASNLESGVPDRFSGSGSGTDFTLKISRVEAEDVGVYYCQQNNEDPYTFGGGTKVEIK
notes: also called antibody with the new frameworks (NF)
B10: binds [7].

B11: NF112 (antibody, human IgG1, V domains shown)
VH: EVQLLESGGGLVQPGGSLRLSCAASGFTFTSYNMHWVRQAPGKGLEWVGVIYSGNGDTSYAQKFQGRFTISADKSKNTAYLQMNSLRAEDTAVYYCARERDTRFGNWGQGTLVTVSS
VL: DIVMTQSPLSLPVTPGEPASISCRASESVDIYGQSFMHWYLQKPGQSPQLLIYLASNLESGVPDRFSGSGSGTDFTLKISRVEAEDVGVYYCQQNNEDPYTFGGGTKVEIK
B11: binds [2].
